Data taken from PMC10779317, “Crosstalk between G-Quadruplexes and Dnmt3a-Mediated Methylation of the c-MYC Oncogene Promoter”.

B1: 30Uf/30Df (dsDNA)
DNA 1: CTGAATACTACTTGCGCTCTCTAACCTGAT
DNA 2: ATCAGGTTAGAGAGCGCAAGTAGTATTCAG
B2: 27fG4 (structured_DNA)
DNA: TGGGGAGGGTGGGGAGGGTGGGGAAGG

Columns and labels:
[1] = molecular target: Dnmt3a-CD (mouse (murine), UniProt O88508 630-908); experiment: fluorescence polarization; 100 uM AdoHcy; 20 mM HEPES-NaOH pH 7.5, 100 mM KCl, 1 mM EDTA, 1 mM DTT, 100 uM AdoHcy, 10 nM DNA (60 nM for PWWP); FP temperature not stated; methylation competition at 37 C; conditions: protein: recombinant, tags: N-terminal 6xHis, chain copies: 4
[2] = molecular target: M.SssI (UniProt P15840 1-386); experiment: as above; conditions: protein: recombinant; label: 5'-FAM; intramolecular parallel G4
M.SssI, sequence (P15840 whole entry, the tested form may be a part): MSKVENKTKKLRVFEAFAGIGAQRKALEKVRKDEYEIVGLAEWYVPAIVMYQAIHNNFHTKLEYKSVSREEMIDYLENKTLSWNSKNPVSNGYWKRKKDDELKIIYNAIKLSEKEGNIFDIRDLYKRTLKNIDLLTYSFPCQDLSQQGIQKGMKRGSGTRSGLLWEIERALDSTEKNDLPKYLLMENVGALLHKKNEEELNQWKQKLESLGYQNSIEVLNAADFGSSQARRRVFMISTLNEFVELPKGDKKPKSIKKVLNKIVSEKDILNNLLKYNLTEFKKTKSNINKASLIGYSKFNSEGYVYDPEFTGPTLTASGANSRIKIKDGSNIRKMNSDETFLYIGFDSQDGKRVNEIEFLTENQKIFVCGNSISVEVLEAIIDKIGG

[3] = molecular target: Dnmt3a PWWP domain (UniProt O88508 288-346); experiment: fluorescence polarization; 100 uM AdoHcy; 60 nM DNA; 20 mM HEPES-NaOH pH 7.5, 100 mM KCl, 1 mM EDTA, 1 mM DTT, 100 uM AdoHcy, 10 nM DNA (60 nM for PWWP); FP temperature not stated; methylation competition at 37 C; conditions: protein: recombinant; label: 5'-FAM; intramolecular parallel G4

Binder	Kd ([1]; label: 5'-FAM on both strands, blunt) [nM]	Kd [2] [nM]	Kd ([1]; label: 5'-FAM, intramolecular parallel G4) [nM]	Kd [3] [nM]
B1	220 ± 30			
B2		1200 ± 600	120 ± 30	900 ± 200
